Test results published in publication PMC10213783, “Crystal structures of glycoprotein D of equine alphaherpesviruses reveal potential binding sites to the entry receptor MHC-I” (Frontiers in Microbiology, 2023).

T1: Recombinant equine MHC-I 3.1 (Eqca-1*00101) with the peptide SDYVKVSNI linked to β2-microglobulin (equine (horse) | horse | )
T1 chain 1: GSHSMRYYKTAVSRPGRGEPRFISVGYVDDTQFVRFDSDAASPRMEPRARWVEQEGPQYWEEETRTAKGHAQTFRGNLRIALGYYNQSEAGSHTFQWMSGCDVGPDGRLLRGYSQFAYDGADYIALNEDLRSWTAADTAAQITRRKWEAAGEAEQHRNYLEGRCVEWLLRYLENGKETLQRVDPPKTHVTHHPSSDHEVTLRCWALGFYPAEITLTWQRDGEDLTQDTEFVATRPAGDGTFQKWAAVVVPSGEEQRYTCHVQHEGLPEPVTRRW
T1 chain 2: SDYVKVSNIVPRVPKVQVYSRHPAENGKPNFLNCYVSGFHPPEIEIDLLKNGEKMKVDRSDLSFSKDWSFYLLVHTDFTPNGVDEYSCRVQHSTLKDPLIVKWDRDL

B1: Recombinant soluble glycoprotein D of equine herpesvirus type 1, gD1_(32-349) (domain or fragment)
chain: EKAKRAVRGRQDRPKEFPPPRYNYTILTRYNATALASPFINDQVKNVDLRIVTATRPCEMIALIAKTNIDSILKELAAAQKTYSARLTWFKIMPTCATPIHDVSYMKCNPKLSFAMCDERSDILWQASLITMAAETDDELGLVLAAPAHSASGLYRRVIEIDGRRIYTDFSVTIPSERCPIAFEQNFGNPDRCKTPEQYSRGEVFTRRFLGEFNFPQGEHMTWLKFWFVYDGGNLPVQFYEAQAFARPVPPDNHPGFDSVESEITQNKTDPKPGQADPKPNQPFKWPSIKHLAPRLDEVDEVIEPVTKPPKTSKSNSTF
modifications: N-linked glycosylation (GlcNAc) visible at N53 and N61
B2: Recombinant soluble glycoprotein D of equine herpesvirus type 4, gD4_(32-349) (domain or fragment)
chain: ENYRRVVRGNQNQRPEFPPPRYNFTIVTTYNETSLPSPFINDQVKIVDVRTVAATRPCEMIALIAKTNVDSIIKELDAAHKTYSARLTWFKITPTCATPIHDVVYMKCNPKLLFGMCDERSNILWLNSLITTAAETDDELGLVLASPAHSYSGLYRRVIQIDGRRIYTDFSVTIPSSHCPLSFEQNFGNPDRCKTPEQYSRGEVYTSRFLSEFNYRQGVHLAWVKHWFVQDGGNLPVQFYEAQAFARPVPPDNHPGFDSVESEITQNKTNPKQEQASPKPNPPFKWPSIKQLAPRIDEVDNAKEITTKKPPASNSNSTF
modifications: Insect-cell N-glycosylation; disulfides C87/C209, C126/C223, C138/C147. Entity position = paper number -30. The deposited construct starts at E31 although the text prints 32-349; TEV-His6 removed. / …
B3: C-terminally truncated EHV-4 glycoprotein D, gD4_(36-280) (domain or fragment)
chain: VVRGNQNQRPEFPPPRYNFTIVTTYNETSLPSPFINDQVKIVDVRTVAATRPCEMIALIAKTNVDSIIKELDAAHKTYSARLTWFKITPTCATPIHDVVYMKCNPKLLFGMCDERSNILWLNSLITTAAETDDELGLVLASPAHSYSGLYRRVIQIDGRRIYTDFSVTIPSSHCPLSFEQNFGNPDRCKTPEQYSRGEVYTSRFLSEFNYRQGVHLAWVKHWFVQDGGNLPVQFYEAQAFARPVP
modifications: Insect-cell N-glycosylation; disulfides C87/C209, C126/C223, C138/C147. Entity position = paper number -30. / Peptide is covalently linked to beta2m. The linker sequence is not printed (supplement) …

Molecular target: T1, Recombinant equine MHC-I 3.1 …
Assay: SPR; recombinant equine MHC-I 3.1 amine-coupled to a polycarboxylate hydrogel chip HC200M; gDs injected in serial dilutions from 0 to about 10 uM, 15 min; 25°C; Biacore J; equilibrium response fitted to a 1:1 model; apparent constants
Settings: both partners purified

B1 and B2 are within 1.5-fold of each other in Kd: 7 µM for the first, 5.8 ± 0.76 µM for the second.

With B3 the Kd was 6.7 ± 0.75 µM.
